Measured values as given in PMC10397247.
One block for each binder: values may come before it.

How the values were obtained:
4H3817-bH = target: T1, 4H3817-bH; assay: two-hybrid library CCNG1;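 note: natural log of median RNA to DNA barcode read ratio; higher means stronger binding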
T1 chain: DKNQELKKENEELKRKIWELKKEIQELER

4H906-bH = target: T2, 4H906-bH; assay: two-hybrid library CCNG1;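 note: natural log of median RNA to DNA barcode read ratio; higher means stronger binding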
T2 chain: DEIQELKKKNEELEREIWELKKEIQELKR

4H3858-bH = target: T3, 4H3858-bH; assay: two-hybrid library CCNG1;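 note: natural log of median RNA to DNA barcode read ratio; higher means stronger binding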
T3 chain: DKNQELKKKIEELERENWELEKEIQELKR

4H570-bH = target: T4, 4H570-bH; assay: two-hybrid library CCNG1;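 note: natural log of median RNA to DNA barcode read ratio; higher means stronger binding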
T4 chain: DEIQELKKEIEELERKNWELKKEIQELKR

4H850-bH = target: T5, 4H850-bH; assay: two-hybrid library CCNG1;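 note: natural log of median RNA to DNA barcode read ratio; higher means stronger binding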
T5 chain: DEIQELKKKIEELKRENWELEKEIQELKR

4H3974-bH = target: T6, 4H3974-bH; assay: two-hybrid library CCNG1;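 note: natural log of median RNA to DNA barcode read ratio; higher means stronger binding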
T6 chain: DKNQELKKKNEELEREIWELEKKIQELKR

4H591-bH = target: T7, 4H591-bH; assay: two-hybrid library CCNG1
T7 chain: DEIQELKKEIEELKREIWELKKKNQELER

4H626-bH = target: T8, 4H626-bH; assay: two-hybrid library CCNG1
T8 chain: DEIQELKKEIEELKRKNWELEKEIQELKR

4H3926-bH = target: T9, 4H3926-bH; assay: two-hybrid library CCNG1
T9 chain: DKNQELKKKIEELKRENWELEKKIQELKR

4H3628-bH = target: T10, 4H3628-bH; assay: two-hybrid library CCNG1
T10 chain: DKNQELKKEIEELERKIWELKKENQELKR

4H3613-bH = target: T11, 4H3613-bH; assay: two-hybrid library CCNG1
T11 chain: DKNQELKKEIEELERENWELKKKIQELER

4H3497-bH = target: T12, 4H3497-bH; assay: two-hybrid library CCNG1
T12 chain: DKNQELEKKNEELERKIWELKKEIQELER

4H2253-AA = target: T13, 4H2253-AA; assay: two-hybrid library CCmax; conditions: mean of both orientations
T13 chain: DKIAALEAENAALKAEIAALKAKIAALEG

4H310-AA = target: T14, 4H310-AA; assay: two-hybrid library CCmax; conditions: mean of both orientations
T14 chain: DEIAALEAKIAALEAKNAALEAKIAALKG

4H3120-AA = target: T15, 4H3120-AA; assay: two-hybrid library CCmax; conditions: mean of both orientations
T15 chain: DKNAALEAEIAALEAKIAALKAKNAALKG

4H2473-AA = target: T16, 4H2473-AA; assay: two-hybrid library CCmax; conditions: mean of both orientations
T16 chain: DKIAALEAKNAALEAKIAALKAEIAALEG

4H3016-AA = target: T17, 4H3016-AA; assay: two-hybrid library CCmax; conditions: mean of both orientations
T17 chain: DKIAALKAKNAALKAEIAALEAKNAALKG

4H536-AA = target: T18, 4H536-AA; assay: two-hybrid library CCmax; conditions: mean of both orientations
T18 chain: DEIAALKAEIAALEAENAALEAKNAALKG

4H2649-AA = target: T19, 4H2649-AA; assay: two-hybrid library CCmax; conditions: mean of both orientations
T19 chain: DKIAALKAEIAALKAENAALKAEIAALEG

4H3395-AA = target: T20, 4H3395-AA; assay: two-hybrid library CCmax; conditions: mean of both orientations
T20 chain: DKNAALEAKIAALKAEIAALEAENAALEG

4H3410-AA = target: T21, 4H3410-AA; assay: two-hybrid library CCmax; conditions: mean of both orientations
T21 chain: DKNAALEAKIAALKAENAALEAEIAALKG

4H797-AA = target: T22, 4H797-AA; assay: two-hybrid library CCmax; conditions: mean of both orientations
T22 chain: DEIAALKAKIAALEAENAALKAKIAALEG

4H2389-AA = target: T23, 4H2389-AA; assay: two-hybrid library CCmax; conditions: mean of both orientations
T23 chain: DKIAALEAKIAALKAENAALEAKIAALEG

4H3865-AA = target: T24, 4H3865-AA; assay: two-hybrid library CCmax
T24 chain: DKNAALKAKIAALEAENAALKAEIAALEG

4H2109-AA = target: T25, 4H2109-AA; assay: two-hybrid library CCmax
T25 chain: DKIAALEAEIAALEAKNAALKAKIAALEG

4H570-AA = target: T26, 4H570-AA; assay: two-hybrid library CCmax; conditions: mean of both orientations
T26 chain: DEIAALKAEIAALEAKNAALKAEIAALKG

4H94-AA = target: T27, 4H94-AA; assay: two-hybrid library CCmax; conditions: mean of both orientations
T27 chain: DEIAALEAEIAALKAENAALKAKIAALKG

4H2865-AA = target: T28, 4H2865-AA; assay: two-hybrid library CCmax; conditions: mean of both orientations
T28 chain: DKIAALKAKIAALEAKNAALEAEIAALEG

4H3165-AA = target: T29, 4H3165-AA; assay: two-hybrid library CCmax; conditions: mean of both orientations
T29 chain: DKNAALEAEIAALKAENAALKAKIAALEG

4H745-AA = target: T30, 4H745-AA; assay: two-hybrid library CCmax; conditions: mean of both orientations
T30 chain: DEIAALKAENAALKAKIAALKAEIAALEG

4H2725-AA = target: T31, 4H2725-AA; assay: two-hybrid library CCmax; conditions: mean of both orientations
T31 chain: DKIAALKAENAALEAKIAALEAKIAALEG

4H891-AA = target: T32, 4H891-AA; assay: two-hybrid library CCmax; conditions: mean of both orientations
T32 chain: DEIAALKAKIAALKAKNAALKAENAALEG

4H710-AA = target: T33, 4H710-AA; assay: two-hybrid library CCmax; conditions: mean of both orientations
T33 chain: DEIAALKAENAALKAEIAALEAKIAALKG

4H2274-AA = target: T34, 4H2274-AA; assay: two-hybrid library CCmax; conditions: mean of both orientations
T34 chain: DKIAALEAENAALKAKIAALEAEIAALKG

4H3130-AA = target: T35, 4H3130-AA; assay: two-hybrid library CCmax; conditions: mean of both orientations
T35 chain: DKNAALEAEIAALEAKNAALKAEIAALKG

4H3009-AA = target: T36, 4H3009-AA; assay: two-hybrid library CCmax; conditions: mean of both orientations
T36 chain: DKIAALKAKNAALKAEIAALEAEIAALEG

4H3381-AA = target: T37, 4H3381-AA; assay: two-hybrid library CCmax; conditions: mean of both orientations
T37 chain: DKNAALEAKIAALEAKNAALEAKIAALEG

4H930-AA = target: T38, 4H930-AA; assay: two-hybrid library CCmax; conditions: mean of both orientations
T38 chain: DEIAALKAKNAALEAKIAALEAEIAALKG

4H458-AA = target: T39, 4H458-AA; assay: two-hybrid library CCmax; conditions: mean of both orientations
T39 chain: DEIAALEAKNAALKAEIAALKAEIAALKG

4H629-AA = target: T40, 4H629-AA; assay: two-hybrid library CCmax; conditions: mean of both orientations
T40 chain: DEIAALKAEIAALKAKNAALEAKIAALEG

4H2330-AA = target: T41, 4H2330-AA; assay: two-hybrid library CCmax; conditions: mean of both orientations
T41 chain: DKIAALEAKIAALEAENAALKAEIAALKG

4H2438-AA = target: T42, 4H2438-AA; assay: two-hybrid library CCmax; conditions: mean of both orientations
T42 chain: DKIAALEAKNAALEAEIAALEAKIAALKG

4H3590-AA = target: T43, 4H3590-AA; assay: two-hybrid library CCmax; conditions: mean of both orientations
T43 chain: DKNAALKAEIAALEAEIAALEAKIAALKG

4H909-AA = target: T44, 4H909-AA; assay: two-hybrid library CCmax; conditions: mean of both orientations
T44 chain: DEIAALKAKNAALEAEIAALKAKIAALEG

4H2698-AA = target: T45, 4H2698-AA; assay: two-hybrid library CCmax; conditions: mean of both orientations
T45 chain: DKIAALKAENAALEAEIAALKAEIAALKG

4H485-AA = target: T46, 4H485-AA; assay: two-hybrid library CCmax; conditions: mean of both orientations
T46 chain: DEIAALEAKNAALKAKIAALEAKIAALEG

4H850-AA = target: T47, 4H850-AA; assay: two-hybrid library CCmax; conditions: mean of both orientations
T47 chain: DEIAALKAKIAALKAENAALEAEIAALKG

4H2162-AA = target: T48, 4H2162-AA; assay: two-hybrid library CCmax; conditions: mean of both orientations
T48 chain: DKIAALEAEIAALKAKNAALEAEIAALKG

4H3697-AA = target: T49, 4H3697-AA; assay: two-hybrid library CCmax; conditions: mean of both orientations
T49 chain: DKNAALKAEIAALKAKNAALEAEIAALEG

4H3753-AA = target: T50, 4H3753-AA; assay: two-hybrid library CCmax; conditions: mean of both orientations
T50 chain: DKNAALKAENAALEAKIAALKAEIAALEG

interaction score (4H3817-bH): 0.965
interaction score (4H906-bH): -0.107
interaction score (4H3858-bH): 0.42
interaction score (4H570-bH): -1.36
interaction score (4H850-bH): 0.701
interaction score (4H3974-bH): 1.22
interaction score (4H591-bH): 0.0937
interaction score (4H626-bH): -0.0728
interaction score (4H3926-bH): 0.588
interaction score (4H3628-bH): 0.896
Binder: DKNQELKKEIEELERKIWELKKENQELKR [4H3628-bH]

interaction score (4H3613-bH): -0.463
interaction score (4H906-bH): -0.345
interaction score (4H591-bH): -1.46
interaction score (4H626-bH): -0.895
interaction score (4H3926-bH): -0.573
interaction score (4H3628-bH): 0.758
interaction score (4H3497-bH): -1.02
Binder: DKNQELEKKNEELERKIWELKKEIQELER [4H3497-bH]

interaction score (4H2253-AA): -1.76
interaction score (4H310-AA): 1.94
interaction score (4H3120-AA): -0.474
interaction score (4H2473-AA): -0.356
interaction score (4H3016-AA): -1.16
interaction score (4H536-AA): 0.839
interaction score (4H2649-AA): 1.26
interaction score (4H3395-AA): -0.63
interaction score (4H3410-AA): 1.87
interaction score (4H797-AA): 1.44
interaction score (4H2389-AA): 2.49
interaction score (4H3865-AA): -0.488
interaction score (4H2109-AA): 1.67
interaction score (4H570-AA): -0.239
interaction score (4H94-AA): 1.43
interaction score (4H2865-AA): 2.17
interaction score (4H3165-AA): -0.391
interaction score (4H745-AA): -0.947
interaction score (4H2725-AA): 0.465
interaction score (4H891-AA): -1.3
interaction score (4H710-AA): -1.26
interaction score (4H2274-AA): -1.47
interaction score (4H3130-AA): -1.05
interaction score (4H3009-AA): -0.233
interaction score (4H3381-AA): -0.283
interaction score (4H930-AA): -0.719
interaction score (4H458-AA): -1.45
interaction score (4H629-AA): 1.09
interaction score (4H2330-AA): 0.0427
interaction score (4H2438-AA): -0.365
interaction score (4H3590-AA): 1.21
interaction score (4H909-AA): -0.525
interaction score (4H2698-AA): 1.53
interaction score (4H485-AA): -0.723
interaction score (4H850-AA): 2.07
interaction score (4H2162-AA): 0.55
interaction score (4H3697-AA): -0.415
interaction score (4H3753-AA): 0.644
Binder: DKIAALEAEIAALEAKNAALKAKIAALEG [4H2109-AA]
